Laboratory results from article PMC10853764.

How the values were obtained:
[1] = target: DriD(L10E) with His-tag (Caulobacter crescentus); test: SEC
[2] = target: Caulobacter crescentus full length DriD, tag-free (Caulobacter crescentus); test: mass photometry
[3] = target: Caulobacter crescentus full length DriD, tag-free (Caulobacter crescentus); test: cross-linking
[4] = target: DriD(V73P-F74P) with His-tag (Caulobacter crescentus); test: SEC
[5] = target: Caulobacter crescentus full length DriD with His-tag (Caulobacter crescentus); test: SEC
DriD WT [6] = target: T1, DriD WT (Caulobacter crescentus, UniProt Q9A999 5-331); test: fluorescence polarization
T1 sequence: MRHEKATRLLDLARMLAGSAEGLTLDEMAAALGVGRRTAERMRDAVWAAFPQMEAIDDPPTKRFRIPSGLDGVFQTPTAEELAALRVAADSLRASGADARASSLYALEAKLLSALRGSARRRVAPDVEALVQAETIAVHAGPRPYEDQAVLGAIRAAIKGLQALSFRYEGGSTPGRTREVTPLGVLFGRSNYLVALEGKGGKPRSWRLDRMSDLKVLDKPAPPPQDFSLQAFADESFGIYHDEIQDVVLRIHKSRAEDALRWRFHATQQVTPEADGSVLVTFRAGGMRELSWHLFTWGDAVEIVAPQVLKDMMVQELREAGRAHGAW

DriD(T61A-K62A) = target: T2, DriD(T61A-K62A) (Caulobacter crescentus, UniProt Q9A999 5-331, T65A;K66A); test: fluorescence polarization
T2 sequence: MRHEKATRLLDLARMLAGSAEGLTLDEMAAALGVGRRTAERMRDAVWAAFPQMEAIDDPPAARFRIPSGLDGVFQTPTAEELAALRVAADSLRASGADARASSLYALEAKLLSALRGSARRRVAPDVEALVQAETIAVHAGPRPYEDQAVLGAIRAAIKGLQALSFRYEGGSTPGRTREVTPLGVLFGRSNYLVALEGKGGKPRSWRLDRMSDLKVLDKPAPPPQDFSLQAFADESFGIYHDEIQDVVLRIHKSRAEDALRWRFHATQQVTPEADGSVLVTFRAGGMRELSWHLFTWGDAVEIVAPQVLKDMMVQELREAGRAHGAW

DriD(V73P-F74P) = target: T3, DriD(V73P-F74P) (Caulobacter crescentus, UniProt Q9A999 5-331, V77P;F78P); test: fluorescence polarization
T3 sequence: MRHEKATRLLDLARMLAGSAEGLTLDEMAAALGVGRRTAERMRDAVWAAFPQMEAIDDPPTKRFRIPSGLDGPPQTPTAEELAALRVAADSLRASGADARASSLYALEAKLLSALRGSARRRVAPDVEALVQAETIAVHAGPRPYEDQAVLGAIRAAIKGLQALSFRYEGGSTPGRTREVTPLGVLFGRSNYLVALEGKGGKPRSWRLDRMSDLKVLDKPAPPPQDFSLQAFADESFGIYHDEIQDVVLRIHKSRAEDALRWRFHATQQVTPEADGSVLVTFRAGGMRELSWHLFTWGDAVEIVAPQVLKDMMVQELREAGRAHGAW

DriD(L10E) = target: T4, DriD(L10E) (Caulobacter crescentus, UniProt Q9A999 5-331, L14E); test: fluorescence polarization
T4 sequence: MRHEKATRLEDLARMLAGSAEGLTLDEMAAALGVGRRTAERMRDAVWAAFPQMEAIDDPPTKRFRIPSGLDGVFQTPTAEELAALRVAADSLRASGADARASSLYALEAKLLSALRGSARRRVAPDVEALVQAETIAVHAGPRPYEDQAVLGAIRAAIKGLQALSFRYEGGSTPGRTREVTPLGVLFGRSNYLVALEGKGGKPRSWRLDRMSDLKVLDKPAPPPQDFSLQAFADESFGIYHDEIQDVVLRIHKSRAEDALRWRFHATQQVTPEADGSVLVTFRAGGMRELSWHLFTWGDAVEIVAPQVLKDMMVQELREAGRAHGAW

DriD(E40K) = target: T5, DriD(E40K) (Caulobacter crescentus, UniProt Q9A999 5-331, E44K); test: fluorescence polarization
T5 sequence: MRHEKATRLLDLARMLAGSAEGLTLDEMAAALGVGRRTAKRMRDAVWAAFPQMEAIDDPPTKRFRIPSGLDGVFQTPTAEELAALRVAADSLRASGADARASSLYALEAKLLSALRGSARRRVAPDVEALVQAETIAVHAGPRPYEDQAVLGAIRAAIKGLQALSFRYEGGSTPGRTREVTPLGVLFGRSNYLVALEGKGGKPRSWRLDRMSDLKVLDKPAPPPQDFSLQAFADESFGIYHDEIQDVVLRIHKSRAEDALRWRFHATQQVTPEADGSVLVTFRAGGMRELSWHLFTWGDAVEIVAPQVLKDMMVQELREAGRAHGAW

DriD(E40A) = target: T6, DriD(E40A) (Caulobacter crescentus, UniProt Q9A999 5-331, E44A); test: fluorescence polarization
T6 sequence: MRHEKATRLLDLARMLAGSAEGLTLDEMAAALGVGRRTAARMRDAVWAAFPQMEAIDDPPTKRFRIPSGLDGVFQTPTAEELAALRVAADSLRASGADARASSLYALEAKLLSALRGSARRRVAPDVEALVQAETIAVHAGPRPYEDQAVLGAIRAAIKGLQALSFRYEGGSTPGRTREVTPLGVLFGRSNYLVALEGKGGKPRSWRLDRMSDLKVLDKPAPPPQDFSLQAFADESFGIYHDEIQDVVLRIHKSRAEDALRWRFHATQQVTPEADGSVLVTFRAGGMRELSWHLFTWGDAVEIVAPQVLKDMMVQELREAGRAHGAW

DriD WT [7] = target: T1, DriD WT; test: X-ray crystallography 2.74 A
DriD WT [8] = target: T1, DriD WT; test: fluorescence polarization; remark: listed apart in the source

For “DriD(L10E) with His-tag (natural protein)”, the stoichiometry N [1] was 2.

“Caulobacter crescentus full length DriD, tag-free (natural protein)” gave a stoichiometry N [2] of 2 and a stoichiometry N [3] of 2.

“DriD(V73P-F74P) with His-tag (natural protein)” showed a stoichiometry N [4] of 2.

Molecule “Caulobacter crescentus full length DriD with His-tag (natural protein)” has a stoichiometry N [5] of 2.

B1: driD promoter 21 bp site (FP) (dsDNA)
DNA 1: ATACGACAGTTACTGTCGTAT
DNA 2: ATACGACAGTAACTGTCGTAT
B1 showed a Kd (DriD WT [6]) of 1.6 ± 0.04 nM, a Kd (DriD(T61A-K62A)) of 1200 ± 200 nM and a Kd (DriD(V73P-F74P)) of 133 ± 10.4 nM. For the same molecule, the Kd (DriD(L10E)) was 120 ± 23.6 nM, the binding signal (DriD(E40K)) was 83 fold reduction vs WT protein and the binding signal (DriD(E40A)) was 7 fold reduction vs WT protein.

B2: C4/G12 to T/A (dsDNA)
DNA 1: ATACGATAGTTACTATCGTAT
DNA 2: ATACGATAGTAACTATCGTAT
With B2 the Kd (DriD WT [6]) was 962 ± 182 nM.

TGTCTAT (ssDNA) [7mer ssDNA effector]: binds (DriD WT [7]).

B3: position 3/13 mutant (T3/A13 to C/G in text) (dsDNA)
DNA 1: ATACGGCAGTTACTGCCGTAT
DNA 2: ATACGGCAGTAACTGCCGTAT
B3 showed a Kd (DriD WT [6]) of 7.1 ± 0.9 nM.

B4: GC-rich center mutant (dsDNA)
DNA 1: ATACGACGGCCGCCGTCGTAT
DNA 2: ATACGACGGCGGCCGTCGTAT
B4 showed a binding signal (DriD WT [8]) of 20 fold reduction vs WT site.

B5: C1/G15 to T/A (dsDNA)
DNA 1: ATATGACAGTTACTGTCATAT
DNA 2: ATATGACAGTAACTGTCATAT
B5 gave a Kd (DriD WT [6]) of 6.9 ± 1.7 nM.

B6: G2/C14 to A/T (dsDNA)
DNA 1: ATACAATAGTTACTATTGTAT
DNA 2: ATACAATAGTAACTATTGTAT
Molecule B6 has a Kd (DriD WT [6]) of 512 ± 227 nM.
